Data from a protein production outcome set (Wang et al. 2014).

Test: label from the status in PepcDB records
In the case of “MSLSSLLIIFSSSFMALFPVINPLGNGFVVNGFFADLDPSQRKTAIQKLTINFIMIGVGTLLIGHLFLLIFGLAIPVIQLGGGILICKTAIELLGDSNSSDKEGTSQNVDSFKWKSIEQKIFYPITFPISIGPGSISVIFTLMASASVKGKLLHTGINYLVIALVIICMAGILYVFLSQGQRIIQKLGPVGNQIINKLVAFFTFCIGIQISVTGISQIFHLNIL”, the protein production is reported as “failed”. In the case of “MSLSVPFEYTPIAQSVLDECEHLDTASLSDALDSLGIDGGLPGIASQVPGTRCVGIAFTVQYQPVDASEGFRGAANYIDQVPSGSVIVSSNSGRHDCTVWGDIMTHFALANGIKGTVIDGVARDIDTVINCNYPLFSRGRFMQSAKNRTQLKAVQVPLVIDGITIQPGDLMVCDGSGCVVVPQQLAAEVVLRARAVEQTERRIIEAISSGSTLEQARMTYRYDQPWLSEAEHGGTQEGHHHHHH”, the protein production is reported as “not failed”. In the case of “MSLSYVKEGLAVLEDGRLIYITPEEFRQLLQGDAILAVYSKTCPHCHRDWPQLIQASKEVDVPIVMFIWGSLIGERELSAARLEMNKAGVEGTPTLVFYKEGRIVDKLVGATPWSLKVEKAREIYGGEGHHHHHH”, the protein production is reported as “not failed”. In the case of “MSLTADTKRPLTLRDVSEASGVSEMTVSRVLRNRGDVSDATRARVLAAAKELGYVPNKIAGALASNRVNLVAVIIPSLSNMVFPEVLTGINQVLEDTELQPVVGVTDYLPEKEEKVLYEMLSWRPSGVIIAGLEHSEAARAMLDAAGIPVVEIMDSDGKPVDAMVGISHRRAGREMAQAILKAGYRRIGFMGTKMPLDYRARKRFEGFTEVLGKNGVEIEDREFYSGGSALAKGREMTQAMLERSPDLDFLYYSNDMIAAGGLLYLLEQGIDIPGQIGLAGFNNVELLQGLPRKLATMDACRLEIGRKAAEIIAKRLEDPEAEIETRITLEPKISYGDTLKREGHHHHHH”, the protein production is reported as “not failed”. For “MSLTDTKVKNAKPSEKVVKLTDGFGLYLLVHTNGSKYWQLGYRFEGKQKVFSIGVYPAVSLANARQRRDEAKKLLAAGVDPSAKKRADNKSVQEKRNNTRAFKTVAKSWFATKTTWSEDYQRSVWTRLETYLFPDIGNKDIAELDTGDLLVPIKKIEKLGYLEIAMRVKQYATAIMRYAVQQKMIRFNPAYDLEGAVQKPQTEHRPAIELEEIPTLLERIEGYKGRSRLTQLAIKLNLLIFIRSSELRFARWSEIDFKSGLWVIPEQREAIKGIKHSDRGAKMRRKHYVPLCEQALVILGELKDLTYDVNGDDGFILTGCYDAMKPMSENTINKALRKMGYDTKTDLCGHGFRTLACSALIESGIWPEDVVELQMSHMEKNNVRAAYTHKAKHLEQRRLMLQWWADFLDANGSGMVRPFEFAQGATQY”, the protein production was “failed”. For “MSLTEKFRPTLKDVARQAGVSIATASRALADNPAVAASTRERIQQLASDLGYRANAQARALRSSRSNTIGVIVPSLINHYFAAMVTEIQSTASKAGLATIITNSNEDATTMSGSLEFLTSHGVDGIICVPNEECANQLEDLQKQGMPVVLVDRELPGDSTIPTATSNPQPGIAAAVELLAHNNALPIGYLSGPMDTSTGRERLEDFKAACANSKIGEQLVFLGGYEQSVGFEGATKLLDQGAKTLFAGDSMMTIGVIEACHKAGLVIGKDVSVIGFDTHPLFALQPHPLTVIDQNVEQLAQRAVSILTELIAGTVPSVTKTTIPTALIHRESIINSTLRKEGHHHHHH”, the protein production was “not failed”. In the case of “MSLTFSILAHDPETGAIGGAAATGSLCVGGWVLRGDLNAGMSASQGAAPSTFWGEEVLQHLRDGSHPEDAVNHVTSQDSGRAYRQLAAMDLLGNAAAFTGSENQDIKGSVTFASGIASGNMLGDNSVLGAMTEAFVASDLTFERRLLAALIAAEGAGSDFRGLLSAAMLVLHPDRPPVTLRIDYHPDNPIGALEQLYQKATTGDYADWARQVPVLSDKERILDEGHHHHHH”, the protein production is reported as “not failed”. For “MSLTIGVIGKSVHPYWSQVEQGVKAAGKALGVDTKFFVPQKEDINAQLQMLESFIAEGVNGIAIAPSDPTAVIPTIKKALEMGIPVVTLDTDSPDSGRYVYIGTDNYQAGYTAGLIMKELLGGKGKVVIGTGSLTAMNSLQRIQGFKDAIKDSEIEIVDILNDEEDGARAVSLAEAALNAHPDLDAFFGVYAYNGPAQALVVKNAGKVGKVKIVCFDTTPDILQYVKEGVIQATMGQRPYMMGYLSVTVLYLMNKIGVQNTLMMLPKVKVDGKVDYVIDTGVDVVTPENLDEYLKKMEELGIPIKEGHHHHHH”, the protein production was “not failed”. For “MSLTLLKGRRKVDTIKVGILGYGLSGSVFHGPLLDVLDEYQISKIMTSRTEEVKRDFPDAEVVHELEEITNDPAIELVIVTTPSGLHYEHTMACIQAGKHVVMEKPMTATAEEGETLKRAADEKGVLLSVYHNRRWDNDFLTIKKLISEGSLEDINTYQVSYNRYRPEVQARWREKEGTATGTLYDLGSHIIDQTLHLFGMPKAVTANVMAQRENAETVDYFHLTLDYGKLQAILYGGSIVPANGPRYQIHGKDSSFIKYGIDGQEDALRAGRKPEDDSWGADVPEFYGKLTTIRGSDKKTETIPSVNGSYLTYYRKIAESIREGAALPVTAEEGINVIRIIEAAMESSKEKRTIMLEHEGHHHHHH”, the protein production was “not failed”. With “MSLTPWLSIVGISEEGWLALTPIAQQCILQADILVGSDRHFDLLPSLPGAEQWRWGSPFSATITQILERRGQSICILASGDPMCYGVGSLLAQRLPLTELQILPAPSAFSLACSRLGWALPEVETLSLCGRDPALLNALLYPGAKILALSADRSTPATIAEQLCQQGWGSSRLTVLEHLGGPKERKISEIAEHWSQPTIASLNTVAIECHARDRDLIVPPRLTGLPDAAYHHDGQLTKREVRAITLAALAPLPGQLLWDVGAGCGSIGIEWMRSDRRCRAIAIEQHPQRLQIITQNAIALGVPNLQVVAGSAPATLSGLPQPDAIFIGGGVTAPGVLDQCWQALPMGGRLVVNAVTLESEQVVLAGQQRWGGDLIRVAVQRAEPIGRFLGWKSLAPITQWTVKKTALEHHHHHH” the protein production was “not failed”. In the case of “MSLTRNRTVALAIIDMQNDFVLPGAPACVEGAMGTVPVIAGLLAKARAEGWMVLHVVRAHRADGSDAEKSREHLFLEGGGLCVAGTPGAEIVAGLEPASGETVLVKTRFSAFMGTECDMLLRRRGVDTLLVSGTQYPNCIRGTAVDAFALDYDVVVVTDACSARTPGVAESNINDMRAMGITCVPLTALDDVLARREGHHHHHH”, the protein production is reported as “not failed”. For “MSLTRPLRADAARNRARVLEVAYDTFAAEGLGVPMDEIARRAGVGAGTVYRHFPTKQALVVAVAEDRVRRIVDHARTLLAAEGPGEALFVFMRDMVRSAAADYGLVDALVGYGLDLEVAAPGAEAAFLATLGELLAAAQRAGTVRADVDVAVIKALLVVCKVPQVYDGEVSERVVRVIEDGLRVRSSVEGHHHHHH”, the protein production was “not failed”. For “MSLTVQDLHFKNKVNFIGGQYVPSNESDTIDILSPSTGKVIGEIPAGCKADAENALEVAQAAQKAWAKLTARTRQNMLRTFANKIRENKHILAPMLVAEQGKLLSVAEMEVDVTATFIDYGCDNALTIEGDILPSDNQDEKIYIHKVPRGVVVGITAWNFPLALAGRKIGPALITGNTMVLKPTQETPLATTELGRIAKEAGLPDGVLNVINGTGSVVGQTLCESPITKMITMTGSTVAGKQIYKTSAEYMTPVMLELGGKAPMVVMDDADLDKAAEDALWGRFANCGQVCTCVERLYVHASVYDEFMAKFLPLVKGLKVGDPMDADSQMGPKCNQREIDNIDHIVHEAIKQGATVATGGKTATVEGFEGGCWYEPTVLVDVKQDNIVVHEETFGPILPIVKVSSMEQAIEFCNDSIYGLSAYVHTQSFANINQAISDLEVGEVYINRGMGEQHQGFHNGWKQSGFGGEDGKFGLEQYLEKKTVYINEAEGHHHHHH”, the protein production was “not failed”. With “MSLVEATLEVIGGKWKCVILCHLTHGKKRTSELKRLMPNITQKMLTQQLRELEADGVINRIVYNQVPPKVEYELSEYGRSLEGILDMLCAWGANHINRVEGHHHHHH” the protein production was “not failed”. For “MSLVNLTINGKHVSAPSGTSILDAAKLINIKIHNLCHLHMNEIDKLDTCASCRVCMVETERGLVPACGTVIKEGMKVQTNSAKALNARRTIVELLLSDHPQDCFVCEKNGDCELQTIAADLGVRKIRYQGSKSFAGKDTSTKSLVKDHSKCILCRRCETVCNDIQTVGALSGVNRGFNTLVSTFFNSDMVETECTFCGQCISVCPTGALTEVDNVPKLWDVLNKKEKTIVVQVAPAVRVAIGEEFGLEPGSISTGKMVAALKALGFEHVFDTNFGADFTIMEEATEFIERIQKGENLPILTSCCPAWVNFLEHNYPDKLNLASSCKSPQGMFGSIAKNYYAPKILGINPEELYVVSVMPCVAKKYEASREELSESGILDVDLSITTRELAKMIKEAAIDLPNLQDQDFDNPLGKSTGAASIFGASGGVLEAALRTSYEKITNKTLDNVNFTNVRGLKGIREASIDVDGTTVNVCIVNTLKNARKIMDKVRSGECKYHIIEVMACPGGCVGGAGQPYHHGNTEIVDRRANALYEIDRNKAIRKSHENPDLQAIYKDFFGEPNSDVAHKYLHTHYFDKSCVYGECPQECACEEAK”, the protein production was “failed”. For “MSLVRSKAPLRLGLAGGGSDVSPYSDIYGGLILNATINLYAYCTIEETNSGRIEINAYDAQCCKSYLSMSQLEIDGEASLIKGVYNRIIRDYRLEPKSFKITTYNDAPAGSGLGTSSTMVVCILKAFIEWLSLPLGDYETSRLAYEIERKDLGLSGGKQDQYAAAFGGFNYMEFLQNDLVIVNPLKMKRWIVDELESSMVLYFTGRSRSSAAIINEQKKNTSEGNQTAIEAMHKIKQSAIDTKLALLKGDVGEFARILGEGWENKKKMAGAITNPMIQEAFDVATGAGAMAGKVSGAGGGGFIMFVVEPTRKEEVVRALNNLNGFVMPFQFIDDGAHGWKIYSTDKVQKEGHHHHHH”, the protein production was “not failed”. For “MSLWLTHPLFLPSLIVGVTIVLWATSLLPEFITALLFFAAAMMAKIAPPEVIFGGFASSAFWLVFSGFVLGIAIRKTGLADRAAQALSARLTDSWPRMVASVVLLSYALAFVMPSNMGRIALLMPIVAAMARRAGIADGSRGWFGLALAVGFGTFQLSATILPANVPNLVMSGAAEGSYGIHLNYVPYLLLHTPVLGWLKGAVLVALICWLFPGKPHPPRDLAPLPPMSRDEKRLAWLLAVVLSLWVTESWHGVGPAWTGLAAAVITLLPRVGFINGEEFASGVNMRTCIYVAGILGLAIAVTQTGIGGAVGNALLQVMPLDKDNPFTSFLALTGITSALNFIMTANGVPALYTTFAQSFADATGFPLLSVIMIQVLGYSTPLLPYQASPIVVAMGLGKVPARAGMQLCLALAAVSYLILLPLDYAWYQLLGKL”, the protein production was “failed”. For “MSMECVVQGIIETQHVEALEILLQGLCGVQRERLRVHELCLRSGPNLGVVSSEVRLLCDLDQPEPTWTVKHVGGAMRGAGADQISVLVRNMIESKVSKNALRMFYALGYKLDHELLKVGFAFHFQRTAHISVSVSSVNKMPKVHAIDEAVPVTPGMQIVDVTAPATSENYSEVAAAVSSFCEFLAPLVHLSKPSISTGVVPTAAAAAASLMSDGGGTTL”, the protein production was “failed”. In the case of “MSMELFEVHEGKAKVLVPKAKTIYDSPVFYNPRMAPNRDVVVLLLNVLKPKIVLDALSATGIRGIRFALETPAEEIWMNDINELAYELMKKNVLLNFKGTLKENAKRAIFEGEKTIVINNDDANRLMAEKHRYFHFIDLDPFGSPMEFLDTALRSVKRKGILGVTATDGAPLCGAHPKACLRKYLAVPLRGELCHEVGTRILVGVIARYAAKYDLGMEVLLAYYKDHYFRAFVKLKDGAKKGDETLENLGYVYFDEKTGRFEVEKSFLSTRPNAYGPLWLGPLKNEKVVGEMLELLVSGFEVANYREVLKLLHMLHEELDIPLFYDTHALGKRLKIEPKKLGEIIKELKSMGYEATRTHFSPTGIKTNAPYEVFVEVMRKN”, the protein production is reported as “failed”. For “MSMIRLTVEETNLLSIYNEGGKRALIENVNAALPYMDADMRELAKRTLSKVDALTEAEFAELPIYAADEV”, the protein production was “failed”.
